Patent US20180155451A1 (published 2018)

T1: FcγRIIb extracellular domain with C-terminal His tag (human, UniProt P31994 43-217)
T1 construct: extracellular domain; Soluble receptor expressed in FreeStyle293 cells and used as analyte in Biacore; also called FcgRIIb; 2b; not shown: His tag at the C terminus
T1 sequence (looked up): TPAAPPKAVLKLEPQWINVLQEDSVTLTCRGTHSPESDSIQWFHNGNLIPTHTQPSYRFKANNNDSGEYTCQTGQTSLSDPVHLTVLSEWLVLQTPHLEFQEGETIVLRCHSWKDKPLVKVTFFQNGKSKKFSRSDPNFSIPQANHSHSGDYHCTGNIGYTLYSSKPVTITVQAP

T2: FcγRIIb extracellular domain with C-terminal His tag (human, UniProt P31994 43-217)
T2 construct: extracellular domain; also called FcgRIIb; 2b; not shown: His tag at the C terminus
T2 sequence (looked up): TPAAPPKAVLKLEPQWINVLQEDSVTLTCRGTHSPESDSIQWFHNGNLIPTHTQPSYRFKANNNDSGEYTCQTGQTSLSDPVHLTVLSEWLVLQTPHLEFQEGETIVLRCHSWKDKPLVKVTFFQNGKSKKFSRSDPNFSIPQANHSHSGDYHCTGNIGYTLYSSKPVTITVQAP

T3: FcγRIIa R (FcγRIIa, allotype R: Arg at position 131) extracellular domain with C-terminal His tag (human, UniProt P12318 34-217)
T3 construct: extracellular domain; also called FcgRIIa R; 2aR; not shown: His tag at the C terminus
T3 sequence (looked up): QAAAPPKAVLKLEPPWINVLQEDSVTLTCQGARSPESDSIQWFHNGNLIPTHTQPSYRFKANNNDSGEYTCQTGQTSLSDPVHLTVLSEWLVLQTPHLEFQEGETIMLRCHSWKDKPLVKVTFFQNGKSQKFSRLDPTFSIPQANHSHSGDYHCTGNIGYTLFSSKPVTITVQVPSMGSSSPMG


How the values were obtained:
[1] = target: T4, FcγRIa extracellular domain with C-terminal His tag (human, UniProt P12314 16-292); assay: SPR Biacore, relative binding amount
T4 construct: extracellular domain; Soluble receptor expressed in FreeStyle293 cells and used as analyte in Biacore; also called FcgRI; 1a; not shown: His tag at the C terminus

[2] = target: T1, FcγRIIb extracellular domain with …; assay: SPR Biacore, relative binding amount
[3] = target: T2, FcγRIIb extracellular domain with …; assay: SPR Biacore, antibody captured, FcgR analyte; vs HeCon Ab GpH7-A5/GpH7-B3/GpL16-k0 = 100
[4] = target: T3, FcγRIIa R (FcγRIIa, allotype R: Arg at …); assay: as above
[5] = target: T3, FcγRIIa R (FcγRIIa, allotype R: Arg at …); assay: ratio He/Con_2aR : He/Con_2b (FcgRIIa R over FcgRIIb), SPR Biacore
Protocol: The heterodimerized antibodies He Abs in which one of the H chains was introduced with an alteration were assayed for their binding activities to each activating FcγR and inhibitory FcγR according to the method described in Example 4. […] The activating FcγRs in FIGS. 26, 27, 28, and 29 are FcγRIa, FcγRIIa (R), FcγRIIa (H), and FcγRIIIa, respectively.
Analysis of interaction between objective antibody and the FcγR was carried out using Biacore T100 (GE Healthcare). HBS-EP+ (GE Healthcare) was used as the running buffer, and the measurement temperature was set to 25° C. Chips produced by immobilizing the antigen peptide by the amine coupling method to a Series S Sencor Chip CM5 (GE Healthcare), or alternatively, chips produced by allowing preliminarily biotinylated antigen peptides to interact with and immobilize onto a Series S Sensor Chip SA (certified) (GE Healthcare) were used. Antibodies of interest were captured onto an antigen peptide-immobilized chip, and allowed to interact to each FcγR diluted with running buffer. To regenerate and repeatedly use the chip, the antibodies captured on the chip were washed off by reacting 10 mM glycine-HCl, pH 1.5.

T4 sequence (P12314 16-292): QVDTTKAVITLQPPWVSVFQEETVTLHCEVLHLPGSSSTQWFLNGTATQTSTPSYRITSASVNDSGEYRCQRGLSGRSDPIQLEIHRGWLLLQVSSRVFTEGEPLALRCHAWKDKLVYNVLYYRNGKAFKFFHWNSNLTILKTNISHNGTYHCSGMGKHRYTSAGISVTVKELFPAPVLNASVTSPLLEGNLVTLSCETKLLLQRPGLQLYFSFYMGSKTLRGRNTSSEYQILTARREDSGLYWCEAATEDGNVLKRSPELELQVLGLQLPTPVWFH

Binder	He/Con_1a [1]	He/Con_2b [2]	He/Con_2b [3]	He/Con_2aR [4]	He_2aR/2b (IIaR/IIb) [5]
heterodimerized antibody GpH7-A5/GpH7-B3 variant I336_01G/GpL16-k0 (antibody, human IgG1, kappa, Substitution in only one H chain (GpH7-B3 side); also called He Ab) heavy 1: not shown heavy 2: not shown light: DIVMTQSPLSLPVTPGEPASISCQASESLVHSNRNTYLHWYLQKPGQSPQLLIYKVSNRFSGVPDRFSGSGSGTDFTLKISRVEAEDVGVYYCSQNTHVPPTFGQGTKVEIERTVAAPSVFIFPPSDEQLKSGTASVVCLLNNFYPREAKVQWKVDNALQSGNSQESVTEQDSKDSTYSLSSTLTLSKADYEKHKVYACEVTHQGLSSPVTKSFNRGEC	109 % of GpH7-A5/GpH7-B3/GpL16-k0 (=100)	90.1 % of GpH7-A5/GpH7-B3/GpL16-k0 (=100)	–	–	–
GpH7-A5/GpH7-B3 variant G236_02A/GpL16-k0 (antibody, human IgG1, kappa, He Ab: alteration in the GpH7-B3 H chain only; also called He Ab) heavy 1: not shown heavy 2: not shown light: DIVMTQSPLSLPVTPGEPASISCQASESLVHSNRNTYLHWYLQKPGQSPQLLIYKVSNRFSGVPDRFSGSGSGTDFTLKISRVEAEDVGVYYCSQNTHVPPTFGQGTKVEIERTVAAPSVFIFPPSDEQLKSGTASVVCLLNNFYPREAKVQWKVDNALQSGNSQESVTEQDSKDSTYSLSSTLTLSKADYEKHKVYACEVTHQGLSSPVTKSFNRGEC	–	–	96.5 control = 100	146 control = 100	1.51
GpH7-A5/GpH7-B3 variant G236_03V/GpL16-k0 (antibody, human IgG1, kappa, He Ab: alteration in the GpH7-B3 H chain only; also called He Ab) heavy 1: not shown heavy 2: not shown light: DIVMTQSPLSLPVTPGEPASISCQASESLVHSNRNTYLHWYLQKPGQSPQLLIYKVSNRFSGVPDRFSGSGSGTDFTLKISRVEAEDVGVYYCSQNTHVPPTFGQGTKVEIERTVAAPSVFIFPPSDEQLKSGTASVVCLLNNFYPREAKVQWKVDNALQSGNSQESVTEQDSKDSTYSLSSTLTLSKADYEKHKVYACEVTHQGLSSPVTKSFNRGEC	–	–	35.3 control = 100	91.6 control = 100	2.6
GpH7-A5/GpH7-B3 variant L235_12R/GpL16-k0 (antibody, human IgG1, kappa, He Ab: alteration in the GpH7-B3 H chain only; also called He Ab) heavy 1: not shown heavy 2: not shown light: DIVMTQSPLSLPVTPGEPASISCQASESLVHSNRNTYLHWYLQKPGQSPQLLIYKVSNRFSGVPDRFSGSGSGTDFTLKISRVEAEDVGVYYCSQNTHVPPTFGQGTKVEIERTVAAPSVFIFPPSDEQLKSGTASVVCLLNNFYPREAKVQWKVDNALQSGNSQESVTEQDSKDSTYSLSSTLTLSKADYEKHKVYACEVTHQGLSSPVTKSFNRGEC	–	–	–	16.2 control = 100	1.69
GpH7-A5/GpH7-B3 variant G237_11K/GpL16-k0 (antibody, human IgG1, kappa, He Ab: alteration in the GpH7-B3 H chain only; also called He Ab) heavy 1: not shown heavy 2: not shown light: DIVMTQSPLSLPVTPGEPASISCQASESLVHSNRNTYLHWYLQKPGQSPQLLIYKVSNRFSGVPDRFSGSGSGTDFTLKISRVEAEDVGVYYCSQNTHVPPTFGQGTKVEIERTVAAPSVFIFPPSDEQLKSGTASVVCLLNNFYPREAKVQWKVDNALQSGNSQESVTEQDSKDSTYSLSSTLTLSKADYEKHKVYACEVTHQGLSSPVTKSFNRGEC	–	–	–	17.1 control = 100	1.9

Other lines, results leading:

He/Con_1a [1]	He/Con_2b [2]	He/Con_2b [3]	He/Con_2aR [4]	He_2aR/2b (IIaR/IIb) [5]	Binder
106 % of GpH7-A5/GpH7-B3/GpL16-k0 (=100)	94.8 % of GpH7-A5/GpH7-B3/GpL16-k0 (=100)	–	–	–	heterodimerized antibody GpH7-A5/GpH7-B3 variant K334_09D/GpL16-k0 (antibody, human IgG1, kappa, Substitution in only one H chain (GpH7-B3 side); also called He Ab) heavy 1: not shown heavy 2: not shown light: DIVMTQSPLSLPVTPGEPASISCQASESLVHSNRNTYLHWYLQKPGQSPQLLIYKVSNRFSGVPDRFSGSGSGTDFTLKISRVEAEDVGVYYCSQNTHVPPTFGQGTKVEIERTVAAPSVFIFPPSDEQLKSGTASVVCLLNNFYPREAKVQWKVDNALQSGNSQESVTEQDSKDSTYSLSSTLTLSKADYEKHKVYACEVTHQGLSSPVTKSFNRGEC
104 % of GpH7-A5/GpH7-B3/GpL16-k0 (=100)	96.7 % of GpH7-A5/GpH7-B3/GpL16-k0 (=100)	–	–	–	heterodimerized antibody GpH7-A5/GpH7-B3 variant T335_01G/GpL16-k0 (antibody, human IgG1, kappa, Substitution in only one H chain (GpH7-B3 side); also called He Ab) heavy 1: not shown heavy 2: not shown light: DIVMTQSPLSLPVTPGEPASISCQASESLVHSNRNTYLHWYLQKPGQSPQLLIYKVSNRFSGVPDRFSGSGSGTDFTLKISRVEAEDVGVYYCSQNTHVPPTFGQGTKVEIERTVAAPSVFIFPPSDEQLKSGTASVVCLLNNFYPREAKVQWKVDNALQSGNSQESVTEQDSKDSTYSLSSTLTLSKADYEKHKVYACEVTHQGLSSPVTKSFNRGEC
107 % of GpH7-A5/GpH7-B3/GpL16-k0 (=100)	99.4 % of GpH7-A5/GpH7-B3/GpL16-k0 (=100)	–	–	–	heterodimerized antibody GpH7-A5/GpH7-B3 variant T335_06M/GpL16-k0 (antibody, human IgG1, kappa, Substitution in only one H chain (GpH7-B3 side); also called He Ab) heavy 1: not shown heavy 2: not shown light: DIVMTQSPLSLPVTPGEPASISCQASESLVHSNRNTYLHWYLQKPGQSPQLLIYKVSNRFSGVPDRFSGSGSGTDFTLKISRVEAEDVGVYYCSQNTHVPPTFGQGTKVEIERTVAAPSVFIFPPSDEQLKSGTASVVCLLNNFYPREAKVQWKVDNALQSGNSQESVTEQDSKDSTYSLSSTLTLSKADYEKHKVYACEVTHQGLSSPVTKSFNRGEC
